Assay results from patent US20060058231A1.
Changes are numbered by the printed parent chain. Values belong to the binder of their own block, whether it stands above or below them.

Molecular target: anti-BMP-7 antibodies of the commercial ELISA (R&D Systems ELISA Duoset Cat#DY354)
Test: sandwich ELISA (R&D Systems BMP7 ELISA Cat#DY354), BMP-7 protein titrated, % ELISA signal; the EC50 column carries no unit, the concentration axis is in ug/mL

EC50: 1.74 ng/mL
B1: 492 (ligand)
BMP-7 mature domain: STGGKQRSQNRSKTPKNQEALRMASVAENSSSDQRQACKKHELYVSFRDLGWQDWIIAPEGYAANYCEGECAFPLNSHMNATNHAIVQTLVHFINPETVPKPCCAPTQLNAISVLYFDDSSNVILKKYRNMVVRACGCH

EC50: 0.755 ng/mL
B2: 471 (ligand)
BMP-7 mature domain: B1 BMP-7 mature domain with K39S, N65Y, H78Y, N130D
